The values that follow come from publication doi:10.1101/2024.08.08.607148 (bioRxiv, 2024).

Assay in all cases: ELISA
Assay [1] concerns the target T1, variable region of RIFIN#1 (PF3D7_1254800, 165-274 aa) (P. falciparum, UniProt Q8I4N9).
Assay [2] has as its target T1, variable region of RIFIN#1 …. The source holds these as a separate data set.
Assay [3] addresses extracellular domain (ECD) of human LILRB1 (human, UniProt Q8NHL6 24-461, biotin (NHS-pEG12-biotin) in the competition ELISA).

Sequence of extracellular domain (ECD) of human LILRB1 (Q8NHL6 24-461): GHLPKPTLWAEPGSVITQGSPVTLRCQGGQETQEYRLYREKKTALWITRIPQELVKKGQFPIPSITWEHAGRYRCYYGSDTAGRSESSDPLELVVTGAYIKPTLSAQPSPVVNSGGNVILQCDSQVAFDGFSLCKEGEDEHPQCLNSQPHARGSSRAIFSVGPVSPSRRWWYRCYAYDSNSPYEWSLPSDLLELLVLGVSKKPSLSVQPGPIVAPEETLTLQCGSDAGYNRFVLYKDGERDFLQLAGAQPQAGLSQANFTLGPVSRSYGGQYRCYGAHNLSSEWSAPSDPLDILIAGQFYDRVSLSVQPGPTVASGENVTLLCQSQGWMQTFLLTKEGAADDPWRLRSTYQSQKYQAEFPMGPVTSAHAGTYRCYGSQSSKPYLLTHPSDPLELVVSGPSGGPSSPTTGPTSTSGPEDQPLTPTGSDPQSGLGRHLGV

B1: D1D2.v-IgG (LILRB1 D1D2.v-containing antibody on the MDB1 scaffold) (antibody, V domains shown)
VH: QITLKESGPTLVERTQTLTLTCTFSGFSLTTDGLGVGWIRQPPGKALEWLALIYYDDVRRYRPSLKSRLTITKDTSKNRVVLTVTDMDPVDAGTYFCVHASLFNLGSRNVYFRYWGQGTLVSVSS
VL: SYDLTQPPSVSVSPGQTARITCSGDSLARQFASWYQQKPGQSPVLLIYKNIERLSAIPERFSGSTSGTSVTLTISGVQAEDEADYFCQSADDSGSYSLFGTGTRVSVL
In turn, B1 registered an IC50 in assay [1] of 20 nM. In assay [2], this molecule gave a Kd of 6 nM.

B2: variable region of RIFIN#1 (PF3D7_1254800, 165-274 aa) (domain or fragment, P. falciparum, UniProt Q8I4N9 165-274, looked up)
chain: NYETINAFIAKTIEELEGIPGITKLFGAKISQFVTPAVFRKPMSLVETILSEKKKLCLCAANKNELLCRGMNPNVPETLPKKIEVAVNEVLSSVNDTWATATTPTTFFTN
B2 gave a Kd in assay [3] of about 650 nM.
